Experimental data: patent US20230053360

Legend:
[1] = tested on: MMPpep, (prA)GGPQGIWGQG(azK), as the DNA1-MMPpep-DNA2 triblock conjugate linking two DX tiles
[2] = tested on: MMPpep-scram, (prA)GQGIPQGWGG(azK), as a DNA-peptide-DNA conjugate linking two DX tiles

Chain of human matrix metalloproteinase 8 (chain, as listed by the source): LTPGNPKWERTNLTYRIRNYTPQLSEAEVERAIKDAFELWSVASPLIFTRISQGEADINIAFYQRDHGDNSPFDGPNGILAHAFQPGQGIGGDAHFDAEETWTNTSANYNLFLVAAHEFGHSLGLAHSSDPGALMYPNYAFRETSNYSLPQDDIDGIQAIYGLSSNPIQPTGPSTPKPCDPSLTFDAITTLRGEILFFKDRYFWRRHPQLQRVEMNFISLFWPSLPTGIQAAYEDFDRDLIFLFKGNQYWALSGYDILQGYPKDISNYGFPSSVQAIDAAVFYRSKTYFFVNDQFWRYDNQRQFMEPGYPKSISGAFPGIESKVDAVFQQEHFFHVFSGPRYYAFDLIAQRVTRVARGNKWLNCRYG

human matrix metalloproteinase 8
cleavage of DX tile dimer to individual tiles, native PAGE [1]: Following addition of MMP8 (4 ng protein, incubation for 48 h at 37 °C in PBS) a single band is once again seen, corresponding to the individual tiles | cleavage of DX tile dimer to individual tiles, native PAGE [2]: did not show any cleavage to individual tiles
